Laboratory results reported in US20120288511A1 (INDIANA UNIVERSITY RESEARCH AND TECHNOLOGY, published 2012).
Where two headings read alike, the source gives them in different places. Non-standard residues stand in square brackets, D forms with d. No end group written: not given here. Aib = CC(C)(N)C(=O)O

Legend:
Assay in all cases: cell-based or functional assay
[1] = target: T1, glucagon receptor (human, UniProt P47871 26-477)
[2] = target: T2, GLP-1 receptor (human, UniProt P43220 24-463)
[3] = target: T1, glucagon receptor; remark: listed apart in the source
[4] = target: T2, GLP-1 receptor; remark: listed apart in the source
[5] = target: T1, glucagon receptor; remark: listed apart in the source
[6] = target: T2, GLP-1 receptor; remark: listed apart in the source
[7] = target: T1, glucagon receptor; remark: listed apart in the source
[8] = target: T2, GLP-1 receptor; remark: listed apart in the source
[9] = target: T1, glucagon receptor; remark: listed apart in the source
[10] = target: T2, GLP-1 receptor; remark: listed apart in the source
[11] = target: T1, glucagon receptor; remark: listed apart in the source
[12] = target: T2, GLP-1 receptor; remark: listed apart in the source
[13] = target: T1, glucagon receptor; remark: listed apart in the source
[14] = target: T2, GLP-1 receptor; remark: listed apart in the source

T1 sequence (P47871 26-477): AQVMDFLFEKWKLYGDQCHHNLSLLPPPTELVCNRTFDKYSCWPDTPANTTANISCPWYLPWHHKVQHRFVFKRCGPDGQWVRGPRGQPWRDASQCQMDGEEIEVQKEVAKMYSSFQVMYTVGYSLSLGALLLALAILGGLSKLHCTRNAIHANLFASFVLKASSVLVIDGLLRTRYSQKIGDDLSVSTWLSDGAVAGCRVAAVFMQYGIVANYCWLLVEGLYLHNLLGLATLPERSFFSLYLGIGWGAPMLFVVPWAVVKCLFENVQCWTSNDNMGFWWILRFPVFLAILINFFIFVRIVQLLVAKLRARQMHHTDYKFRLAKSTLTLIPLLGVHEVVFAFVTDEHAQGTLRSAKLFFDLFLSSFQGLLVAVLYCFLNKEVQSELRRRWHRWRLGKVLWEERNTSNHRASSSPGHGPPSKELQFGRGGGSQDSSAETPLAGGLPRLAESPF

B1: Glucagon Analog 20 (peptide)
peptide: HSQGTFTSDYSKYLDEKRAKEFVQWLMNT-NH2
modifications: also: DPP-IV-protecting residue at position 1 or 2: D-Ser, Aib or Dmia, salt bridge Lys17/Glu21 plus salt bridge 16/20 or α,α-disubstituted residue at 16
[1]
  EC50 (cAMP luciferase reporter): 0.054 nM
[2]
  EC50 (cAMP luciferase reporter): 0.284 nM
[3]
  EC50 (cAMP luciferase reporter): 0.054 nM
[4]
  EC50 (cAMP luciferase reporter): 0.284 nM

## H[Aib]QGTFTSDYSKYLDEEAVRLFIEWLMNT-NH2 [Glucagon Analog C]
[5]
  EC50 (cAMP luciferase reporter): 0.17 nM
[6]
  EC50 (cAMP luciferase reporter): 0.006 nM

## HSQGTFTSDKSKYLDERAAQDFVQWLLDT-NH2 (not fully specified; also: position 2 Aib or D-Ser) [Glucagon Analog 51]
[7]
  EC50 (cAMP luciferase reporter): 0.0035 nM
[8]
  EC50 (cAMP luciferase reporter): 0.0039 nM
[9]
  % Relative Activity vs native glucagon: 314%
  EC50 (cAMP luciferase reporter): 0.004 nM
[10]
  % Relative Activity vs native GLP-1: 949%
  EC50 (cAMP luciferase reporter): 0.004 nM
[11]
  % Relative Activity vs native glucagon: 314%
  EC50 (cAMP luciferase reporter): 0.0035 nM
[12]
  % Relative Activity vs native GLP-1: 949%
  EC50 (cAMP luciferase reporter): 0.0039 nM

## HSQKTFTEDYSKYLDSRRAQDFVQWLMNT (not fully specified; also: further groups not given here) [Peptide 17]
[13]
  EC50 (cAMP luciferase reporter): 862 nM
[14]
  EC50 (cAMP luciferase reporter): 148 nM

B2: Glucagon Analog 29 (peptide)
peptide: HSQGTFTSDKSKYLDERAAQDFVC(PEG 40 kDa)WLLDT-NH2
modifications: not fully specified (residue 10); also: Lys10 acylated, acyl group not given here
[3]
  EC50 (cAMP luciferase reporter): 0.085 nM
  percent in parentheses (not explained): 74%
[4]
  EC50 (cAMP luciferase reporter): 0.084 nM
  percent in parentheses (not explained): 16%
[7]
  EC50 (cAMP luciferase reporter): 0.085 nM
[8]
  EC50 (cAMP luciferase reporter): 0.084 nM
[9]
  % Relative Activity vs native glucagon: 40%
  EC50 (cAMP luciferase reporter): 0.085 nM
[10]
  % Relative Activity vs native GLP-1: 43%
  EC50 (cAMP luciferase reporter): 0.084 nM

B3: Glucagon Analog 24 (peptide)
peptide: HSQGTFTSDYSKYLDEKRAKEFVC(PEG 40 kDa)WLMNT-NH2
modifications: also: DPP-IV-protecting residue at position 1 or 2 not given here, non-covalent salt bridge Lys17/Glu21
[1]
  % Relative Activity vs native glucagon: 7%
  EC50 (cAMP luciferase reporter): 0.676 nM
[2]
  % Relative Activity vs native GLP-1: 5%
  EC50 (cAMP luciferase reporter): 1.58 nM

## HSQGTFTSDYSKYLDEEAVRLFIEWLMNT-NH2 (not fully specified (residue 2)) [Glucagon Analog A]
[5]
  EC50 (cAMP luciferase reporter): 0.061 nM
[6]
  EC50 (cAMP luciferase reporter): 0.009 nM

## HSQGTFTSDYSKYLDKRRAEDFVQWLMNT (not fully specified; also: further groups not given here) [Peptide 3]
[13]
  EC50 (cAMP luciferase reporter): 0.34 nM
[14]
  EC50 (cAMP luciferase reporter): 1.15 nM

## HSQGTFTSDYSKYLDEQAAKEFIAWLMNT-NH2 (not fully specified (residue 2)) [Glucagon Analog B]
[5]
  EC50 (cAMP luciferase reporter): 0.072 nM
[6]
  EC50 (cAMP luciferase reporter): 0.014 nM

## H[Aib]QGTFTSDYSKYLDEQAAKEFIAWLMNT-NH2 [Glucagon Analog D]
[5]
  EC50 (cAMP luciferase reporter): 0.85 nM
[6]
  EC50 (cAMP luciferase reporter): 0.02 nM
